Where a chain is given by its changes, count along the chain named.

In patent publication US20200157212A1 (Pfizer, published 2020) one finds IC50 and Kd data, which are given here for 14 molecules.

The chains are these.
B1: Abcs35-A (antibody, human IgG1, kappa)
heavy: EVQLVQSGAEVKKPGASVKVSCKASGYTFTGYYMHWVRQAPGQGLEWMGWINPKNGDTEFPQKFQGRVTMTRDTSITTAYMDLSRLRSDDTAVYYCARESGDDAFDIWGQGTMVTVSSASTKGPSVFPLAPSSKSTSGGTAALGCLVKDYFPEPVTVSWNSGALTSGVHTFPAVLQSSGLYSLSSVVTVPSSSLGTQTYICNVNHKPSNTKVDKKVEPKSCDKTHTCPPCPAPEAAGAPSVFLFPPKPKDTLMISRTPEVTCVVVDVSHEDPEVKFNWYVDGVEVHNAKTKPREEQYNSTYRVVSVLTVLHQDWLNGKEYKCKVSNKALPAPIEKTISKAKGQPREPQVYTLPPSREEMTKNQVSLTCLVKGFYPSDIAVEWESNGQPENNYKTTPPVLDSDGSFFLYSKLTVDKSRWQQGNVFSCSVMHEALHNHYTQKSLSLSPGK
light: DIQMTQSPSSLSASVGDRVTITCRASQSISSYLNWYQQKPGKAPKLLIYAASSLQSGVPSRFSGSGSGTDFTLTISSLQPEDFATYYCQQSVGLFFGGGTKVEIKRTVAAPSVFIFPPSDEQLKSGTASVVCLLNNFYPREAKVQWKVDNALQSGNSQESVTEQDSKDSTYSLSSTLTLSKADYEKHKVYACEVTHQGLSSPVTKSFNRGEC
notes: germlined variant of Abcs35; also called Abcs-A
B2: Abcs35-O (antibody, human IgG1, kappa)
heavy: B1 heavy with E1Q, T77S, D82E
light: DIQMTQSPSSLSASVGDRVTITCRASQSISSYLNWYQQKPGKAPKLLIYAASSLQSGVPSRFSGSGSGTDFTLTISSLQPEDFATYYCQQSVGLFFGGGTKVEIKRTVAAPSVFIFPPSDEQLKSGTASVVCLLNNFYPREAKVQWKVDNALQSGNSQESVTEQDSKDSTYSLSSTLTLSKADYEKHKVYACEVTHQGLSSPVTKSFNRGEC
notes: germlined variant of Abcs35
B3: Abcs35-M (antibody, human IgG1, kappa)
heavy: B1 heavy with E1Q, T77S
light: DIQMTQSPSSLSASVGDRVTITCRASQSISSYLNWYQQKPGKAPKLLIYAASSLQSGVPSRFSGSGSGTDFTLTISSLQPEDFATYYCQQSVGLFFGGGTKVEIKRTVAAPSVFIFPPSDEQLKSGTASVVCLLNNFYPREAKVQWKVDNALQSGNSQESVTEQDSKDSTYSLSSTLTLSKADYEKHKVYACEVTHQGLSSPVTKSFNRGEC
notes: germlined variant of Abcs35
B4: Abcs35-F (antibody, human IgG1, kappa)
heavy: B1 heavy with E1Q, T77S
light: DIVMTQSPSSLSASVGDRVTITCRASQSISSYLNWYQQKPGKAPKLLIYAASSLQSGVPSRFSGSGSGTDFTLTISSLQPEDFATYYCQQSVGLFFGGGTKVEIKRTVAAPSVFIFPPSDEQLKSGTASVVCLLNNFYPREAKVQWKVDNALQSGNSQESVTEQDSKDSTYSLSSTLTLSKADYEKHKVYACEVTHQGLSSPVTKSFNRGEC
notes: germlined variant of Abcs35
B5: Abcs35-C (antibody, human IgG1, kappa)
heavy: B1 heavy with D82E
light: B4 light
notes: germlined variant of Abcs35
B6: Abcs35-N (antibody, human IgG1, kappa)
heavy: B1 heavy with E1Q, D82E
light: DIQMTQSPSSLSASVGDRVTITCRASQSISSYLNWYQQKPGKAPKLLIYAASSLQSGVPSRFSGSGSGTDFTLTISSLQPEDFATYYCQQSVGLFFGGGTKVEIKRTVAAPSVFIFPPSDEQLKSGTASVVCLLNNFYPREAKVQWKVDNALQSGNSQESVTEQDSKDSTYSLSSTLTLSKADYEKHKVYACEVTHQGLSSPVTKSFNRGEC
notes: germlined variant of Abcs35
B7: Abcs35-I (antibody, human IgG1, kappa)
heavy: B1 heavy with T77S
light: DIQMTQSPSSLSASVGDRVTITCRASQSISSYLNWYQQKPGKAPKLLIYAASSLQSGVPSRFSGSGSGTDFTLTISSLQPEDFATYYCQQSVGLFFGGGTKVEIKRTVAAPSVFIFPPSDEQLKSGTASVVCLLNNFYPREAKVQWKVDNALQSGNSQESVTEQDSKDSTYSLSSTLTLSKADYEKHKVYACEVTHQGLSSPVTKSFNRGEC
notes: germlined variant of Abcs35
B8: Abcs35-D (antibody, human IgG1, kappa)
heavy: B1 heavy with T77S, D82E
light: B4 light
notes: germlined variant of Abcs35
B9: Abcs35-K (antibody, human IgG1, kappa)
heavy: B1 heavy with T77S, D82E
light: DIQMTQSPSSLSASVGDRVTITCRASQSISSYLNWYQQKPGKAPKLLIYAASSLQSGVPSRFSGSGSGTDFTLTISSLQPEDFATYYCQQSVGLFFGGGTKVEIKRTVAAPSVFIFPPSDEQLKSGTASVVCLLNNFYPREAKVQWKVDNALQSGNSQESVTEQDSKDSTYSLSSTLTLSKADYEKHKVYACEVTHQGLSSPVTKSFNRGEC
notes: germlined variant of Abcs35
B10: Abcs35-B (antibody, human IgG1, kappa)
heavy: B1 heavy with T77S
light: B4 light
notes: germlined variant of Abcs35
B11: Abcs35-H (antibody, human IgG1, kappa)
heavy: B1 heavy with E1Q, T77S, D82E
light: B4 light
notes: germlined variant of Abcs35
B12: Abcs35-E (antibody, human IgG1, kappa)
heavy: B1 heavy with E1Q
light: B4 light
notes: germlined variant of Abcs35; also called Abcs35-eE
B13: Abcs35-L (antibody, human IgG1, kappa)
heavy: B1 heavy with E1Q
light: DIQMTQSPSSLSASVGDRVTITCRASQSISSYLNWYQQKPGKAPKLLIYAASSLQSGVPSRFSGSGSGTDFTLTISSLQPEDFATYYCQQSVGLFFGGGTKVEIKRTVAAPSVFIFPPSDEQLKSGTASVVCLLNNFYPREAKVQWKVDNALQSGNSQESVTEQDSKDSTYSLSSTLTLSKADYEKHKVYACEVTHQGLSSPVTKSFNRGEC
notes: germlined variant of Abcs35
B14: Abcs35-G (antibody, human IgG1, kappa)
heavy: B1 heavy with E1Q, D82E
light: B4 light
notes: germlined variant of Abcs35

The target of the first experiment is T1, Terbium (Tb) labeled-SNAP tagged ROBO2 expressed on HEK293 cells (Homo sapiens (Human), UniProt Q9HCK4 22-1378, terbium label on the SNAP tag).
T1 construct: also called Tb-labeled ROBO2 cells; ROBO2 expressing cells; not shown: SNAP tag
T1 sequence: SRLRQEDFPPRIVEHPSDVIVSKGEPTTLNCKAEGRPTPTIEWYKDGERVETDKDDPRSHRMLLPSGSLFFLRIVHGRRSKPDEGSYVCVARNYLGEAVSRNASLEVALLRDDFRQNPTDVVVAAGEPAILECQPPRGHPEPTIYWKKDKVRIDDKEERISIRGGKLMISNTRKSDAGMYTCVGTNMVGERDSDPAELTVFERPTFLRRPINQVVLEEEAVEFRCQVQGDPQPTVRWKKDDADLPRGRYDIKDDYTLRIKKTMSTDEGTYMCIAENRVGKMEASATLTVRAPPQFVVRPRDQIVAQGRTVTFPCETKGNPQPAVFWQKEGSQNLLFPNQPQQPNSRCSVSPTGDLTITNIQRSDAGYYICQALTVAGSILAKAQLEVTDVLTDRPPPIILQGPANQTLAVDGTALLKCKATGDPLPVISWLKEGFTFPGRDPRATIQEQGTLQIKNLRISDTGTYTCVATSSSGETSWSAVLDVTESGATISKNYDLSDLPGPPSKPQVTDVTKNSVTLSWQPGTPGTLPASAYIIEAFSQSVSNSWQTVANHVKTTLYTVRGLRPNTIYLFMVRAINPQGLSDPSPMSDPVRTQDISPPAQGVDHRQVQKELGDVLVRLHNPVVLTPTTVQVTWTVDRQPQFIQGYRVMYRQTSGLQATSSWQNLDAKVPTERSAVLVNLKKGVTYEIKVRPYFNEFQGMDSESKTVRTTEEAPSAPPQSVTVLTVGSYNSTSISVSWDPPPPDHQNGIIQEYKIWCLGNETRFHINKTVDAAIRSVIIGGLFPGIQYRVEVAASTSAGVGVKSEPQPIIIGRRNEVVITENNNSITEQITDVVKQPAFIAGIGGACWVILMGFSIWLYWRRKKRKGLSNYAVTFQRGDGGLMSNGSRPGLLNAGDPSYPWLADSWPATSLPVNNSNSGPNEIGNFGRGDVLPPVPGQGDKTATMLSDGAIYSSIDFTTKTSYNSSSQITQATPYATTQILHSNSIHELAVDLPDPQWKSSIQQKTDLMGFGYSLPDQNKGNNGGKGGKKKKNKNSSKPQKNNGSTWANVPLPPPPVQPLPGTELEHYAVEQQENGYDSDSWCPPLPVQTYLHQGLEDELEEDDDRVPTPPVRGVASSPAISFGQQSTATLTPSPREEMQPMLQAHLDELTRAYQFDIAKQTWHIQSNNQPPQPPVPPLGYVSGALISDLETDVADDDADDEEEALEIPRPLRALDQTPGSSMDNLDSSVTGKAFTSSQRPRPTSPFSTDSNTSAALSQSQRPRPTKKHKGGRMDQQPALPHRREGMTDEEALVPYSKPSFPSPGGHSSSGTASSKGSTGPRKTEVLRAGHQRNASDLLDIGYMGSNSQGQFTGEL
Briefly: HTRF competition, competitor d2-SLIT2-N, ROBO2 HEK293 cells. As for the experimental part:
A ROBO2-SLIT2-N homogenous time resolved fluorescence (HTRF) assay was used to identify antibodies that were capable of blocking SLIT2-N binding to ROBO2. In this assay, terbium (Tb) labeled-SNAP tagged ROBO2 expressing HEK293 cells were incubated with 5 nM d2-labeled SLIT-2N in the presence of 1 nM anti-ROBO2 antibodies for 1 hour. After incubation, fluorescence at 665 nm and 620 nm was measured on an Envision multilabel plate reader. […] Maximal signal was defined as the HTRF ratio of Tb-labeled ROBO2 cells with d2-labeled SLIT2-N in the absence of antibody, the minimum signal was defined as the HTRF ratio of Tb-labeled ROBO2 expressing HEK293 cells only. One nanomolar (nM) parental antibody, 93H2, was unable to block the HTRF assay, therefore this concentration was selected to identify clones with a higher affinity than 93H2 (Table 2, HTRF Ratio column). […] Antibodies derived from chain (Abcs series) or CDR shuffling (CTIR-2 series) were evaluated in 11-point, 5-fold dilution series with a top concentration of 1500 nM (Table 2 HTRF IC₅₀).
Neutralization of SLIT2-N binding to ROBO2 was assessed ROBO2:SLIT2-N homogenous time resolved fluorescence (HTRF) assay as described in Example 2. Briefly the HTRF assay was performed as follows: terbium (Tb) labeled-SNAP tagged ROBO2 expressing HEK293 cells were incubated with d2-labeled SLIT-2N in the presence of anti-ROBO2 antibodies for 1 hour. After incubation, fluorescence at 665 nm and 620 nm was measured on an Envision multi-label plate reader. […] Maximal signal was defined as the HTRF ratio of Tb-labeled ROBO2 cells with d2-labeled SLIT2-N in the absence of antibody, the minimum signal was defined as the HTRF ratio of Tb-labeled ROBO2 expressing HEK293 cells only.
Background: TR-FRET usually uses a lanthanide donor and a delayed reading to cut background.
In general, IC50 refers to the concentration needed to halve the response being measured. B1 returned an IC50 of 0.0728 nM.

Molecule B2 yielded an IC50 of 0.0624 nM.

B3 returned an IC50 of 0.0591 nM.

As for B4, the IC50 was determined as 0.0766 nM. This IC50 and that of the molecule before are within 1.5-fold of each other.

Molecule B5 returned an IC50 of 0.074 nM.

With B6, the IC50 worked out at 0.0903 nM.

As to B7, the IC50 was determined as 0.0745 nM.

The molecule B8 yielded an IC50 of 0.0639 nM.

In the case of B9, the IC50 amounted to 0.0752 nM.

The molecule B10 showed a half-maximal inhibitory concentration (IC50) of 0.0765 nM.

B11 showed an IC50 of 0.0829 nM.

Consider B12, for which the IC50 was 0.0651 nM.

In turn, B13 yielded an IC50 of 0.0796 nM.

With B14, the IC50 was 0.0754 nM.

A further experiment has as its target T2, Human ROBO2 Ig1-Ig2-His (human, UniProt Q9HCK4 31-220).
T2 construct: the His tag is named only in the SPR paragraphs; the Octet and ELISA paragraphs print 'ROBO2 Ig1-Ig2' without a tag; also called ROBO2 Ig1-2; Human ROBO2 Ig 1,2
T2 sequence: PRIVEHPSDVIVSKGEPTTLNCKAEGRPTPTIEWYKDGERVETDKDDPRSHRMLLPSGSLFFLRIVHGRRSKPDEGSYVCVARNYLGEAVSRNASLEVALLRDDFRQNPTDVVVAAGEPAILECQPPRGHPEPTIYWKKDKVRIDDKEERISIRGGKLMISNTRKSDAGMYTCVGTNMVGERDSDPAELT
The experiment can be described thus: SPR, antibody on CM5 chip, ROBO2 Ig1-Ig2-His. Here is the method:
Based upon several criteria, Abcs25 and Abcs35 were selected for further characterization. Using flow cytometry, improvement in the binding EC₅₀ to human ROBO2 relative to the parental 93H2 was evaluated. Starting at 6.7 nM, 11-point, 3-fold dilution series were made for each antibody and used to stain HEK293 overexpressing human ROBO2 as described above for the ROBO2 fold selectivity (Example 2). […] In addition to measuring improved binding to human ROBO2, it was important to ensure that high affinity binding to both cynomolgus monkey ROBO2 and rat ROBO2 was maintained. Using HEK293 cells overexpressing either cynomolgus monkey ROBO2 or rat ROBO2, the relative dose-dependent binding of 93H2, Abcs25 and Abcs35 was evaluated as described above. High affinity binding to both cynomolgus monkey and rat ROBO2 was maintained in Abcs25 and Abcs35 (Table 4). […] Briefly, Abcs35 was immobilized to 300 resonance units (RU) on a CM5 chip. Association of ROBO2 Ig1-Ig2-His (ROBO2) was measured over 5 minutes and dissociation was followed for a period of 10 minutes.
Affinity was measured by standard SPR methods as described in Example 3. Briefly, antibodies were immobilized to a specific measure of resonance units (RU) on a CM5 chip. Association of ROBO2 Ig1-Ig2-His (ROBO2) and dissociation will be followed for a period of time.
The Kd is the constant that tells how readily two partners part at equilibrium. Higher therefore signals lower affinity. Turning to B1, the Kd is 0.099 nM.

Molecule B2 had a Kd of 0.217 nM. This Kd is about 2.2-fold higher than that of the molecule before.

The molecule B3 had a Kd of 0.217 nM.

Take B4: the Kd amounted to 0.194 nM.

As to B5, binding was put at a Kd of 0.0821 nM. Compared with the last molecule, the Kd is about 2.4-fold lower.

Regarding B6, binding was characterised by a dissociation constant (Kd) of 0.146 nM. This Kd lies about 1.8-fold higher than the previous one.

In turn, B7 returned a dissociation constant Kd of 0.145 nM.

The molecule B8 registered a Kd of 0.125 nM. This Kd and that of the molecule before are within 1.5-fold of each other.

Molecule B9 displayed a Kd of 0.142 nM.

As to B10, the Kd is 0.123 nM.

With B11, the affinity, expressed as Kd, was 0.194 nM.

With B12, the Kd came to 0.128 nM.

In turn, B13 came in with an equilibrium dissociation constant (Kd) of 0.149 nM. The Kd values of the last two molecules are within 1.5-fold of each other.

Turning to B14, binding was put at a Kd of 0.131 nM.
